Laboratory results: patent US12329823B2 (The Scripps Research Institute, priority 2021, dated 2025)
Where two headings read alike, the source gives them in different places.

How the values were obtained:
human GLP-1R = human GLP-1R (Homo sapiens, UniProt P43220); test: In vitro receptor activation reporter assay (CRE-Luc, HEK293-GLP-1R-CRE cells; receptor-mediated cAMP synthesis); assay type: cell-based; set-up: expressed in transfected cells; host or cells: HEK293 (CRE-HEK293, HEK293-GLP-1R-CRE)
human GLP-1R, sequence (P43220 24-463): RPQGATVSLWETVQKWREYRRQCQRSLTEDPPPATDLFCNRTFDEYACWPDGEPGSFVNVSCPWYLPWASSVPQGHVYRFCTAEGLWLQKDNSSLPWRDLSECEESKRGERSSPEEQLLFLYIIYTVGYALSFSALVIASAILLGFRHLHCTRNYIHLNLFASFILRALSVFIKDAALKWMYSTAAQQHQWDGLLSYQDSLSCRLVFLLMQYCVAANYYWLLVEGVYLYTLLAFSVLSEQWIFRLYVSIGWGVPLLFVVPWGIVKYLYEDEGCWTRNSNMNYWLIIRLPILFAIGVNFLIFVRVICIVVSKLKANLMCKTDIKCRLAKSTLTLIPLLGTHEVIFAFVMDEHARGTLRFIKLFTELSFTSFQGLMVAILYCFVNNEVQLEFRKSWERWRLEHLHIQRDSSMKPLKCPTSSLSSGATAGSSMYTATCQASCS
Description: (§1) HEK293 cells were infected with lentivirus encoding firefly luciferase gene under the control of cAMP responsive element (CRE) promoter (Qiagen, The Netherlands) and then were selected using 1 μg mL^−1 puromycin (Life Technologies, Carlsbad) for 1 week. The surviving cells (referred to as CRE-HEK293) were expanded and then transfected with a G418 selective mammalian expression plasmid encoding human GLP-1R or GIPR. In brief, GLP-1R or GIPR plasmid was transfected into CRE-HEK293 cells using Lipofectamine 2000 and selected with 400 μg mL^−1 Geneticin (Life Technologies, Carlsbad, CA). Single colony stable cell line overexpressing CRE-luciferase and GLP-1R or GIPR (HEK293-GLP-1R-CRE or HEK293-GIPR-CRE) was then established for in vitro activity assay.
(§2) The EC50 of each peptide was determined using GraphPad Prism 6 software (GraphPad, San Diego, CA).
HEK293 cells were infected with lentivirus encoding firefly luciferase gene under the control of cAMP responsive element (CRE) promoter (Qiagen, The Netherlands) and then were selected using 1 μg/mL puromycin (Life Technologies, Carlsbad) for 1 week. The surviving cells (referred to as CRE-HEK293) were expanded and then transfected with a G418 selective mammalian expression plasmid encoding human GLP-1R. In brief, GLP-1R plasmid was transfected into CRE-HEK293 cells using Lipofectamine 2000 and selected with 400 μg/mL Geneticin (Life Technologies, Carlsbad, CA). Single colony stable cell line overexpressing CRE-luciferase and GLP1R was then established for in vitro activity assay.

[1] = Acute oral glucose tolerance test (OGTT) in wild-type mice, 2 h and 96 h post injection; assay type: in vivo, mouse; conditions: 96 h after administration; 10 nmol/kg s.c.
human GIPR = target: T1, human GIPR (Homo sapiens, UniProt P48546); test: In vitro receptor activation reporter assay (CRE-Luc, HEK293-GIPR-CRE cells; receptor-mediated cAMP synthesis); assay type: cell-based
T1 construct: expressed in transfected cells; host or cells: HEK293 (CRE-HEK293, HEK293-GIPR-CRE)
T1 sequence (P48546 22-466): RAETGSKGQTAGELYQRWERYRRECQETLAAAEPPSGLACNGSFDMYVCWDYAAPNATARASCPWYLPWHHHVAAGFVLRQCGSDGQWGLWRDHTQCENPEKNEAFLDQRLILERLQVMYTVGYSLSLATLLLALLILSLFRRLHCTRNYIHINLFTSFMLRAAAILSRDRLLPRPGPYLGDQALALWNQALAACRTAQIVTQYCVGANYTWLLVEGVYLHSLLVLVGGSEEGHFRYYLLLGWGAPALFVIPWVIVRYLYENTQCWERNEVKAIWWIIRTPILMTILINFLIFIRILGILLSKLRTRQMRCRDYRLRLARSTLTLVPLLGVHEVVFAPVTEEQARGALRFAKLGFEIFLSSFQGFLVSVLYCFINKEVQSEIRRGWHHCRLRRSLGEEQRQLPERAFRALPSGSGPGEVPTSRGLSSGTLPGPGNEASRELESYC
Description: as §1, §2

[2] = Pharmacokinetics in CD-1 mouse, I.V. or S.C. 1 mg/kg, plasma concentration by LC-MS;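 further: peptide levels in plasma quantified by LC-MS across multiple sampling times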
Description: The peptide plasma concentration at various time points was determined using LC-MS.

[3] = In vivo oral glucose tolerance test (OGTT) 12 h after a single S.C. dose; set-up: species or system mouse; conditions: 10 nmol/kg S.C.; 12 h before glucose
Description: Mice were fasted overnight prior to the oral glucose tolerance test (OGTT), and then dosed with peptide. After 12 h, 1 g of glucose solution per kg body weight was administered orally, and mouse tail blood glucose levels were measured before (0 min) and after glucose challenge for 90 minutes (with measurements at 15, 30, 60 and 90 minutes) (FIG. 16). The data were compared using the unpaired Student's t test. Where appropriate, data were compared using repeated measures or one-way analysis of variance, followed by the Student-Newman-Keuls post hoc test. Calculations for […] (mg/dL*min) were also analyzed and graphed in FIG. 16. […]. […].

Work on `CCCC[C@@H]1NC(=O)[C@H](C)NC(=O)[C@H](C)NC(=O)[C@H](CCC(N)=O)NC(=O)[C@H](CCCCN)NC(=O)[C@H](CC(=O)O)NC(=O)[C@@H](NC(=O)[C@H](Cc2ccc(O)cc2)NC(=O)[C@@H](NC(=O)[C@H](CC(=O)O)NC(=O)[C@H](Cc2ccc(O)cc2)NC(=O)[C@H](CC(=O)O)NC(=O)[C@H](CO)NC(=O)[C@H](Cc2c[nH]cn2)NC(=O)[C@H](Cc2ccccc2)NC(=O)[C@@H](NC(=O)CNC(=O)[C@H](CCC(=O)O)NC(=O)C(C)(C)NC(=O)[C@@H](N)Cc2ccc(O)cc2)[C@@H](C)O)[C@@H](C)CC)CCCCNC(=O)CN(C(=O)CCNC(=O)CCOCCOCCNC(=O)CCOCCOCCNC(=O)CC[C@H](NC(=O)CCCCCCCCCCCCCCCCC(=O)O)C(=O)O)CC(=O)NCCCC[C@@H](C(=O)N[C@@H](Cc2ccccc2)C(=O)N[C@H](C(=O)N[C@@H](C)C(=O)N[C@@H](Cc2c[nH]c3ccccc23)C(=O)N[C@@H](CC(C)C)C(=O)N[C@@H](CC(C)C)C(=O)N[C@@H](C)C(=O)NCC(=O)NCC(=O)N2CCC[C@H]2C(=O)N[C@@H](CO)C(=O)N[C@@H](CO)C(=O)NCC(=O)N[C@@H](C)C(=O)N2CCC[C@H]2C(=O)N2CCC[C@H]2C(=O)N2CCC[C@H]2C(=O)N[C@@H](CO)C(N)=O)C(C)C)NC1=O` [ZA-42 - K5, YAibEGT-FHSDY-DIYXD-KQAANle-XFVAW-LLAGG-PSSGA-PPPS-NH2 (where each X is K) (SEQ ID NO: 47)] yielded an EC50 (human GLP-1R; Table 7, read-out: EC50 GLP1R) of roughly 13700 nM.
In the case of `CC[C@H](C)[C@H](NC(=O)[C@H](CO)NC(=O)[C@H](Cc1ccc(O)cc1)NC(=O)[C@H](CC(=O)O)NC(=O)[C@H](CO)NC(=O)[C@@H](NC(=O)[C@H](Cc1ccccc1)NC(=O)[C@@H](NC(=O)CNC(=O)[C@H](CCC(=O)O)NC(=O)C(C)(C)NC(=O)[C@@H](N)Cc1ccc(O)cc1)[C@@H](C)O)[C@@H](C)O)C(=O)N[C@@H](Cc1ccc(O)cc1)C(=O)N[C@H]1CCCCNC(=O)CN(C(=O)CCNC(=O)CCOCCOCCNC(=O)CCOCCOCCNC(=O)CC[C@H](NC(=O)CCCCCCCCCCCCCCCCC(=O)O)C(=O)O)CC(=O)NCCCC[C@@H](C(=O)N[C@@H](Cc2ccccc2)C(=O)N[C@H](C(=O)N[C@@H](CC(N)=O)C(=O)N[C@@H](Cc2c[nH]c3ccccc23)C(=O)N[C@@H](CC(C)C)C(=O)N[C@@H](CC(C)C)C(=O)N[C@@H](C)C(=O)NCC(=O)NCC(=O)N2CCC[C@H]2C(=O)N[C@@H](CO)C(=O)N[C@@H](CO)C(=O)NCC(=O)N[C@@H](C)C(=O)N2CCC[C@H]2C(=O)N2CCC[C@H]2C(=O)N2CCC[C@H]2C(=O)N[C@@H](CO)C(N)=O)C(C)C)NC(=O)C(C)(C)NC(=O)[C@H](C)NC(=O)[C@H](C)NC(=O)[C@H](CCC(N)=O)NC(=O)[C@H](CCCCN)NC(=O)[C@H](CC(=O)O)NC1=O` [mCLZ715, YAibEGT-FTSDY-SIYXD-KQAAAib-XFVNW-LLAGG-PSSGA-PPPS-NH2 (where each X is K) (SEQ ID NO: 40)], the fasted glucose levels [1] is reported as “significantly reduce fasted glucose levels” and the “glucose handling (OGTT) versus vehicle” value [1] is reported as “more significant improvements in handling glucose”.
Compound `CC[C@H](C)[C@H](NC(=O)[C@H](CC(C)C)NC(=O)[C@H](Cc1c[nH]c2ccccc12)NC(=O)[C@H](CC(N)=O)NC(=O)[C@@H](NC(=O)[C@H](Cc1ccccc1)NC(=O)[C@@H]1CSCC(=O)NCCN(C(=O)CCC(=O)NCCOCCOCCC(=O)NCCOCCOCCC(=O)NCCCC[C@H](NC(=O)CCCCCCCCCCCCCCCCCCC(=O)O)C(=O)O)CCNC(=O)CSC[C@H](NC(=O)[C@H](Cc2ccc(O)cc2)NC(=O)[C@@H](NC(=O)[C@H](CO)NC(=O)[C@H](Cc2ccc(O)cc2)NC(=O)[C@H](CC(=O)O)NC(=O)[C@H](CO)NC(=O)[C@@H](NC(=O)[C@H](Cc2ccccc2)NC(=O)[C@@H](NC(=O)CNC(=O)[C@H](CCC(=O)O)NC(=O)C(C)(C)NC(=O)[C@@H](N)Cc2ccc(O)cc2)[C@@H](C)O)[C@@H](C)O)[C@@H](C)CC)C(=O)N[C@@H](CC(=O)O)C(=O)N[C@@H](CCCCN)C(=O)N[C@@H](CCC(N)=O)C(=O)N[C@@H](C)C(=O)N[C@@H](C)C(=O)NC(C)(C)C(=O)N1)C(C)C)C(=O)N[C@@H](C)C(=O)NCC(=O)NCC(=O)N1CCC[C@H]1C(=O)N[C@@H](CO)C(=O)N[C@@H](CO)C(=O)NCC(=O)N[C@@H](C)C(=O)N1CCC[C@H]1C(=O)N1CCC[C@H]1C(=O)N1CCC[C@H]1C(=O)N[C@@H](CO)C(N)=O` [mCMV266, YAibEGT-FTSDY-SIYXD-KQAAAib-XFVNW-LIAGG-PSSGA-PPPS-NH2 (where each X is C) (SEQ ID NO: 52)] has an EC50 (human GIPR; EC50 GIPR 02/19, unnumbered table, run 02/19) of 0.08 nM, an EC50 (human GIPR; EC50 GIPR 03/25, unnumbered table, run 03/25) of 0.06 nM and an EC50 (human GIPR; EC50 GIPR 03/26, unnumbered table, run 03/26) of 0.06 nM. The EC50 (human GIPR; EC50 GIPR, Table 8) was 0.07 nM, the EC50 (human GIPR; unnumbered table, average of runs, read-out: EC50 GIPR average) was 0.07 nM and the bioavailability ([2]; CD-1, mouse, in vivo, sc, 1 mg/kg) was 63%. It also gave a Cl ([2]; Table 14, SC 1 mg/kg) of 4.02 mL/h/kg, a Vd ([2]; Table 14, SC 1 mg/kg) of 0.063 L/kg and an AUC(0-inf) ([2]; mouse, in vivo, iv, 1 mg/kg) of 397 µg·h/mL. It also gave a Cmax ([2]; mouse, in vivo, iv, 1 mg/kg) of 30400 ng/mL, an MRT last ([2]; mouse, in vivo, iv, 1 mg/kg) of 18.6 h and a Tmax ([2]; mouse, in vivo, iv, 1 mg/kg) of 0.5 h. It also gave a Vd ([2]; mouse, in vivo, iv, 1 mg/kg) of 0.043 L/kg, a clearance ([2]; mouse, in vivo, iv, 1 mg/kg) of 2.58 mL/h/kg and a half-life ([2]; mouse, in vivo, iv, 1 mg/kg) of 11.5 h. The AUC(0-t) ([2]; mouse, in vivo, iv, 1 mg/kg, AUC0-24, Table 14, IV 1 mg/kg) was 269 µg·h/mL, the AUC(0-t) ([2]; mouse, in vivo, iv, 1 mg/kg, AUCLAST, Table 14, IV 1 mg/kg) was 390 µg·h/mL and the AUC(0-inf) ([2]; mouse, in vivo, sc, 1 mg/kg) was 252 µg·h/mL. The Cmax ([2]; mouse, in vivo, sc, 1 mg/kg) was 6610 ng/mL, the MRT last ([2]; mouse, in vivo, sc, 1 mg/kg) was 24.3 h and the Tmax ([2]; mouse, in vivo, sc, 1 mg/kg) was 12.7 h. The half-life ([2]; mouse, in vivo, sc, 1 mg/kg) was 10.7 h, the AUC(0-t) ([2]; mouse, in vivo, sc, 1 mg/kg, AUC0-24, Table 14, SC 1 mg/kg) was 135 µg·h/mL and the AUC(0-t) ([2]; mouse, in vivo, sc, 1 mg/kg, AUCLAST, Table 14, SC 1 mg/kg) was 247 µg·h/mL. The EC50 (human GLP-1R; EC50 GLP1R 02/19, unnumbered table, run 02/19) was 0.03 nM, the EC50 (human GLP-1R; EC50 GLP1R 3/25, unnumbered table, run 3/25) was 0.05 nM and the EC50 (human GLP-1R; EC50 GLP1R 03/26, unnumbered table, run 03/26) was 0.06 nM. The EC50 (human GLP-1R; EC50 GLP1R, Table 8) was 0.05 nM and the EC50 (human GLP-1R; unnumbered table, average of runs, read-out: EC50 GLP1R average) was 0.05 nM.
For Semaglutide [reference compound], the “glucose handling (OGTT) versus vehicle” value [1] was “did not exhibit any improvement over the vehicle” and the “effects on glucose tolerance” value [3] was “indistinguishable effects on glucose tolerance”.
